The subject of one experiment is cyIL1RAP. The experiment is described as follows: Kinetics of IL1RAP mAbs by Octet, cynomolgus IL1RAP. It counts as binding. On the procedure: (§1) Antibodies were diluted in kinetics buffer (0.1% BSA, 0.02% Tween-20 and 0.05% NaN3 in PBS) and loaded onto 16 channel anti-mouse IgG Fc capture sensors (AMC, Cat #2001073; Sartorius, Göttingen, Germany). Human, huIL1RAP-His (Sino Biological, lot: MB08MA1301), and monkey, cyIL1RAP-His (Lake Pharma, NY, USA; lot:16205819371) proteins were titrated starting from the highest concentration of 100 nM and followed by 50 nM and 25 nM. Purified antibodies were loaded at 5 μg/ml in kinetics buffer. The experimental parameters selected to determine the kinetic constants were Baseline for 60 s, Loading of antibody to sensor for 180 s, Association of analyte to antibody for 120 s, Dissociation for 1200 s and Regeneration in 10 mM Glycine pH 1.7 for 4×30 s.
(§2) Regeneration cycle tracking was selected for 12 cycles. Binding to human and cynomolgus IL1RAP was measured and KD (M) kinetics were calculated. Also, the disassociation rate (Kdis) (1/s) and association rate (Kon) (1/Ms) kinetics were calculated (data not shown).
(Biolayer interferometry detects binding as a change in optical thickness at a sensor tip.)

The test system of experiment [1] is IL1-induced NFκB activity. Kind of experiment: HEK-BlueIL1β NFκB Reporter Assay. It counts as cell-based. Conditions: nM range, read-out: IC50, inhibition of IL1-induced NFκB activity. On the procedure: The HEK-Blue IL1β (Invivogen, Cat #hkb-il1b) cell line was used to monitor NFκB activity upon stimulation with IL1β cytokine. In this cell line the secreted embryonic alkaline phosphatase reporter gene (SEAP) is inducibly expressed under the control of IFN-β minimal promoter fused to NFκB/AP-1. Specificity to IL1β cytokine was achieved by blockage of TNF-α response. The cells were maintained in the presence of hygromycin (200 μg/ml) and zeocin (100 μg/ml).
For the functional assay, cells were plated at a density of 5×10^4 cells/well in 96-well plates. Cells were treated with each antibody at the highest concentration of 200 μg/ml followed by seven serial 1:3 dilutions and incubated for 45 minutes at 37° C./5% CO2 in humified incubator. Cells were then stimulated with IL1β ([…]) and incubated overnight at 37° C./5% CO2 in humified incubator. Every treatment was conducted in triplicates. Following, supernatants from each well were mixed with Quanti-Blue substrate (Invivogen, CA USA; Cat #rep-qb1) according to manufacturer's recommendations and secreted SEAP was measured using spectrophotometer at 650 nm.
(Reporter assays use an easily measured gene product as a stand-in for the process of interest.)

Experiment [2] concerns IL33-induced NFκB activity. Kind of experiment: HEK-BlueIL33 NFκB Reporter Assay. It counts as cell-based, human. Conditions: nM range, read-out: IC50, inhibition of IL33-induced NFκB activity. The text has this:
HEK-Blue IL33 (Invivogen, Cat #hkb-hil33) cell line was used to monitor NFκB activity upon stimulation with IL33 cytokine. The secreted embryonic alkaline phosphatase reporter gene (SEAP) is inducible expressed under the control of IFN-β minimal promoter fused to NFκB/AP-1. HEK-BlueIL33 cells were also generated upon stable transfection with human IL1RL1 (ST2) gene. Specificity to IL33 cytokine was achieved by blockage of TNF-α and IL1 response. Cells are maintained in the presence of hygromycin (200 μg/ml), zeocin (100 μg/ml) and blasticidin (10 μg/ml).
For the functional assay, cells were plated at a density of 5×10^4 cells/well in 96-well plates. Cells were treated with each antibody at the highest concentration of 200 μg/ml followed by seven serial 1:3 dilutions and incubated for 45 minutes at 37° C./5% CO^2 in humified incubator. Cells were then stimulated with IL33 (12 μM) and incubated overnight at 37° C./5% CO2 in humified incubator. Every treatment was conducted in triplicates. Following, supernatants from each well were mixed with Quanti-Blue substrate (Invivogen, Cat #rep-qb1) according to manufacturer's recommendations and secreted SEAP was measured using spectrophotometer at 650 nm.

The target in a further experiment is T1, hIL1RAP (Homo sapiens, UniProt Q9NPH3).
T1 sequence (Q9NPH3 21-367 limits assumed): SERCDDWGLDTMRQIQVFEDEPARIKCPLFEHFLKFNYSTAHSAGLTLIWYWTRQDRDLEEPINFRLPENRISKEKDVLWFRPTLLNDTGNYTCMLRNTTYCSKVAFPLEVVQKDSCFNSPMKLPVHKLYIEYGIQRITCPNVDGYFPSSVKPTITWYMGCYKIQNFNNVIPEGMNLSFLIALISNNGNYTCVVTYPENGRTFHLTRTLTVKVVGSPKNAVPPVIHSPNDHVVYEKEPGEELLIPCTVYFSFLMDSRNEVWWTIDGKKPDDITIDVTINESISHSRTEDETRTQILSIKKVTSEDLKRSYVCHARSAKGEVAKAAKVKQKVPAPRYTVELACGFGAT
The experiment is described as follows: Kinetics of IL1RAP mAbs by Octet, human IL1RAP. It counts as binding. Also on record: extracellular domain His-tagged, Cat #10121-H08H; His; purchased Sino Biological lot MB08MA1301 (catalogue number not given). The method, then: as §1, §2

Experiment [3] concerns patient-derived AML samples. The experiment is described as follows: Cell viability of patient-derived AML samples, CellTiter-Glo. It is filed as cell-based, human. The settings on record: 15 patient-derived AML samples; 0.1-100 nM, 6 days. On the procedure:
Primary patient-derived AML cells collected using leukapheresis or peripheral blood draw were selected based on expression levels of IL1RAP, IL1R1 and IL1RL1. On study day 0, cell viability was calculated, and cells were seeded at a density of 20,000 viable cells/well in 96-well plates. Cells were treated on Day 0 with IL1RAP monoclonal antibodies at a concentration of 100 nM followed by 5-fold serial dilutions. Cytarabine treatment (5 μM) was used as a positive control. Plates were kept at 37° C./5% CO2 in humified incubator and media was not changed during the duration of the assay. On Day 6, plates were removed from incubator and equilibrated to room temperature for up to 30 minutes. Then CellTiter-Glo was added to wells (100 μl) and plates were mixed for 2 minutes on plate rocker, followed by 10 minutes incubation at room temperature. Luminescent signal was recorded using Tecan plate reader and IC50s were calculated.
On the technique in general: ATP-based viability assays read luminescence as a measure of living cells.

B1: 74804_25H09A: anti-IL1RAP mAb; VH SEQ ID NO:9, VL SEQ ID NO:25, κ light chain (antibody, V domains shown)
VH: QVQLVQSGAEVKKPGSSVKVSCKASGDTFSNYAITWVRQAPGQGLEWIVGFSPIFGTANYAQKFQGRVTITADKSTSTAYMELSSLISEDTAVYYCAWGSGNFNWFDPWGQGTLVTVSS
VL: AIRMTQSPSSFSASTGDRVTITCRASQGISSYLAWYQQKPGKAPKLLIYAASTLQSGVPSRFSGSGSGTDFTLTISSLQSEDFATYYCQQYYSYPLTFGGGTKVEIK
modifications: 74804_25H09A VH; 74804_25H09A VL
For orientation: IC50 means the concentration needed to halve the response being measured. As to B1, in the experiment with cyIL1RAP, the “cyIL1RAP kdis(1/s)” value was determined as 0.000297 s⁻¹ and the “cyIL1RAP kon(1/Ms)” value amounted to 142000 M⁻¹ s⁻¹. Besides, the concentration for half-maximal inhibition (IC50) in experiment [1] worked out at 1.77 nM. The 50% inhibitory concentration (IC50) in experiment [2] is 6.55 nM. Besides, in the experiment with hIL1RAP, the “hIL1RAP kdis(1/s)” value worked out at 0.000337 s⁻¹ and the “hIL1RAP kon(1/Ms)” value worked out at 154500 M⁻¹ s⁻¹.

B2: 74804_05B24A: anti-IL1RAP mAb; VH SEQ ID NO:10, VL SEQ ID NO:26, κ light chain (antibody, V domains shown)
VH: EVQLVDSGGGLVKPGGSLRLSCAATGFTFSNVWMSWVRQGSGKGLEWVGRIKSKTDGGTIDYAAPVKGRFTISRDDPKNTLYLQMNSLKTEDTAVYYCTTGELLGFDYWGQGTLVTVSS
VL: DIVMTQSPLSLPVTPGEPASISCRSGQSLLHNNGFNCLAWYLQKPGQSPQLLIYLGSNRASGVPDRFSGSGSGTDFTLKISRVEAEDVGVFYCMQTLQTPITFGQGTRLEIK
modifications: 74804_05B24A VH; 74804_05B24A VL
Take B2: in the experiment with cyIL1RAP, the “cyIL1RAP kdis(1/s)” value amounted to 0.000563 s⁻¹ and the “cyIL1RAP kon(1/Ms)” value came to 267900 M⁻¹ s⁻¹. Also, in experiment [1], the half-maximal inhibitory concentration (IC50) turned out to be 0.446 nM. In experiment [2], the concentration for half-maximal inhibition (IC50) was 2.72 nM. In experiment [3], the Inhibition of viability result is listed as “inhibition of viability of patient-derived AML samples”. In the experiment with hIL1RAP, the “hIL1RAP kdis(1/s)” value is 0.000491 s⁻¹ and the “hIL1RAP kon(1/Ms)” value turned out to be 294400 M⁻¹ s⁻¹.

B3: 74804_18L05A: anti-IL1RAP mAb; VH SEQ ID NO:4, VL SEQ ID NO:21, κ light chain (antibody, V domains shown)
VH: QVQLVQSGAEVKKPGASVKVSCKTSGYTFTSCCMHWVRQAPGQGLEWMGIINPSVGSTSYAQKFQGIVTMTRDTSTSTVYMELSSLRSEDTAVYYCAVDSSGSRYYYGMDVWGQGTTVTVSS
VL: EIVMTQSPATLSVSPGERATLSCRASQSVRSNLAWYQQRPGQAPRLLIYGTSTRATGIPARFSGSGSGTEFTLTISSLQSEDFAVYYCQQYNYWPYTFGQGTKLEIK
modifications: 74804_18L05A VH; 74804_18L05A VL
On to B3, for which, in the experiment with cyIL1RAP, the “cyIL1RAP kdis(1/s)” value came to 0.000954 s⁻¹ and the “cyIL1RAP kon(1/Ms)” value is 221100 M⁻¹ s⁻¹. The IC50 in experiment [1] was determined as 1.73 nM. In experiment [2], the half-maximal inhibitory concentration (IC50) came to 4.81 nM. Besides, in the experiment with hIL1RAP, the “hIL1RAP kdis(1/s)” value was determined as 0.00037 s⁻¹ and the “hIL1RAP kon(1/Ms)” value came out at 227800 M⁻¹ s⁻¹.

B4: 74804_07K10A: anti-IL1RAP mAb; VH SEQ ID NO:5, VL SEQ ID NO:22, κ light chain (antibody, V domains shown)
VH: QVQLLQSGAEVKKPGSSVKVSCRASGGTFSIYAIDWVRQAPGQGLEWMGGIIPISGTENSAQNFQDRITITADKSTNTAYMELSSLRSEDTAVYYCARNGATSDAFDIWGQGTMVTVSS
VL: EIVLTQSPGTLSLSPGERATLSCRASLSVSSNYLAWFQQRPGQAPRLLIYGVSRRATGIPDRFSGSGSGTDFTLTISRLEPEDFAVYYCQQYGSSPLTFGGGTKVEIK
modifications: 74804_07K10A VH; 74804_07K10A VL, 74804_29D13A VL and 74804_43F04A VL
Regarding B4, in the experiment on cyIL1RAP, the “cyIL1RAP kdis(1/s)” value was determined as 0.000283 s⁻¹ and the “cyIL1RAP kon(1/Ms)” value is 376800 M⁻¹ s⁻¹. Besides, the IC50 in experiment [1] came out at 3.19 nM. Besides, the IC50 in experiment [2] was 6.62 nM. In the experiment with hIL1RAP, the “hIL1RAP kdis(1/s)” value came to 0.000234 s⁻¹ and the “hIL1RAP kon(1/Ms)” value is 392100 M⁻¹ s⁻¹.

B5: 74804_29D13A: anti-IL1RAP mAb; VH SEQ ID NO:6, VL SEQ ID NO:22, κ light chain (antibody, V domains shown)
VH: QVQLLQSGAEVKKPGSSVKVSCKASGGTFSIYAIDWVRQAPGQGLEWMGGIIPIFGTANSAQKFQGRVTITADKSTSTAYMELSSLRSEDTAVYYCARNGATSDAFDMWGQGTMVTVSS
VL: EIVLTQSPGTLSLSPGERATLSCRASLSVSSNYLAWFQQRPGQAPRLLIYGVSRRATGIPDRFSGSGSGTDFTLTISRLEPEDFAVYYCQQYGSSPLTFGGGTKVEIK
modifications: 74804_12A21B VH and 74804_29D13A VH; 74804_07K10A VL, 74804_29D13A VL and 74804_43F04A VL
B5: in the experiment on cyIL1RAP, the “cyIL1RAP kdis(1/s)” value was 0.00065 s⁻¹ and the “cyIL1RAP kon(1/Ms)” value stood at 329600 M⁻¹ s⁻¹. In addition, the IC50 in experiment [1] came to 1.85 nM. For the same molecule, the IC50 in experiment [2] came out at 8.75 nM. For the same molecule, in the experiment with hIL1RAP, the “hIL1RAP kdis(1/s)” value was 0.000361 s⁻¹ and the “hIL1RAP kon(1/Ms)” value turned out to be 336100 M⁻¹ s⁻¹.

B6: 74804_51C10A: anti-IL1RAP mAb; VH SEQ ID NO:8, VL SEQ ID NO:24, κ light chain (antibody, V domains shown)
VH: QVQLLQSGAEVKKPGSSVKVSCKASGGTFNIYAIDWVRQAPGQGLEWMGGIIPIFGTANSAQKFQGRVTITADKSTNTAYMELSSLRSEDTAVYYCARNGATSDAFDIWGQGTMVTVSS
VL: EIVLTQSPGTLSLSPGERATLSCRASQSVSSNYLAWFQQRPGQAPRLLIYGVSRRATGIPDRFSGSGSGTDFTLTISRLEPEDFAVYYCQQYGSSPLTFGGGTKVEIK
modifications: 74804_51C10A VH; 74804_51C10A VL
B6: in the experiment on cyIL1RAP, the “cyIL1RAP kdis(1/s)” value was found to be 0.000459 s⁻¹ and the “cyIL1RAP kon(1/Ms)” value stood at 325600 M⁻¹ s⁻¹. Besides, the IC50 in experiment [1] stood at 2.5 nM. Moreover, in experiment [2], the IC50 turned out to be 13 nM. For the same molecule, in the experiment with hIL1RAP, the “hIL1RAP kdis(1/s)” value is 0.000301 s⁻¹ and the “hIL1RAP kon(1/Ms)” value is 343500 M⁻¹ s⁻¹.
